± gives the uncertainty stated by the source.
B1: Androgen receptor, residues 557 to 632; numbered along this chain, P10275 (parent)
chain: QKTCLICGDEASGCHYGALTCGSCKVFFKRAAEGKQKYLCASRNDCTIDKFRRKNCPSCRLRKCYEAGMTLGARKL

Variants of: B1
Assay: abundance fitness (aPCA) (normalised: wild type 0, dead -1); higher = more abundant; growth selection in yeast, the domain comes from the species named
Conditions: Homo sapiens

Abundance fitness: each site, then its substitutions
Y16: W -0.122 ± 0.034; L -0.275 ± 0.032; M -0.11 ± 0.041; G -0.432 ± 0.034; V -0.609 ± 0.044; R -0.684 ± 0.043; N -0.307 ± 0.12; D -0.355 ± 0.097; C -0.566 ± 0.081; P -0.455 ± 0.052; S -0.408 ± 0.038; Q -0.487 ± 0.074; H -0.333 ± 0.21; T -0.445 ± 0.044; K -0.473 ± 0.08; A -0.397 ± 0.035
L5: K -0.053 ± 0.06; R -0.105 ± 0.046; M -0.212 ± 0.083; A -0.109 ± 0.052; Q -0.113 ± 0.07; H -0.137 ± 0.069; T -0.01 ± 0.05; V -0.145 ± 0.044; C -0.07 ± 0.078; N -0.058 ± 0.048; Y -0.162 ± 0.049; G -0.189 ± 0.041; I -0.04 ± 0.052; P -0.296 ± 0.071; D -0.065 ± 0.061; F -0.078 ± 0.052; W -0.122 ± 0.065; S -0.013 ± 0.044; E -0.071 ± 0.062
D9: E -0.171 ± 0.085; L -0.626 ± 0.15; Y -0.609 ± 0.4; K -0.53 ± 0.17; V -0.201 ± 0.062; F -0.562 ± 0.21; A -0.089 ± 0.065; Q -0.071 ± 0.14; I -0.109 ± 0.13; H 0.138 ± 0.35; C -0.053 ± 0.1; G -0.182 ± 0.049; W -0.289 ± 0.079; N -0.008 ± 0.1; S -0.061 ± 0.064; R -0.378 ± 0.073
T20: R -0.859 ± 0.063; Q -0.856 ± 0.12; H -0.299 ± 0.15; I -0.035 ± 0.22; L -0.166 ± 0.043; C 0.002 ± 0.064; E -0.825 ± 0.12; A -0.041 ± 0.035; G -0.539 ± 0.042; P -0.724 ± 0.09; K -0.755 ± 0.24; N -0.441 ± 0.21; M -1 ± 0.18
G8: A 0.009 ± 0.067; N -0.29 ± 0.25; L -0.146 ± 0.06; W -0.529 ± 0.12; H -0.06 ± 0.17; S -0.165 ± 0.078; T -0.31 ± 0.11; E -0.045 ± 0.075; R -0.43 ± 0.07; K -0.111 ± 0.076; C -0.319 ± 0.14; Y 0.036 ± 0.19; Q -0.463 ± 0.17; V -0.868 ± 0.26
C4: K -0.87 ± 0.32; E -0.563 ± 0.16; Y -0.884 ± 0.4; L -0.745 ± 0.35; W -0.964 ± 0.36; H -0.851 ± 0.4; R -0.114 ± 0.074; G -0.61 ± 0.099; M -0.679 ± 0.37
H15: A -0.151 ± 0.078; C -0.037 ± 0.11; G -0.151 ± 0.054; W 0.097 ± 0.062; Q -0.175 ± 0.12; N -0.157 ± 0.088; D -0.177 ± 0.13; K -0.106 ± 0.097; T 0.045 ± 0.1; I -0.063 ± 0.2; M -0.088 ± 0.11; E 0.099 ± 0.08; V -0.182 ± 0.075; L -0.211 ± 0.074; R -0.221 ± 0.063; Y -0.237 ± 0.16; P -0.27 ± 0.13
T3: Q -0.04 ± 0.097; S -0.059 ± 0.079; W -0.115 ± 0.087; K -0.252 ± 0.1; N 0.035 ± 0.2; P -0.229 ± 0.12; L -0.035 ± 0.075; C 0.014 ± 0.13; I 0.009 ± 0.23; H -0.225 ± 0.2; E -0.148 ± 0.096; A -0.081 ± 0.061; Y -0.003 ± 0.15; V -0.245 ± 0.063; G -0.078 ± 0.06; R -0.083 ± 0.064; D -0.171 ± 0.084
C14: G -0.11 ± 0.054; M -0.087 ± 0.11; D 0.081 ± 0.11; H -0.035 ± 0.12; R -0.142 ± 0.055; F -0.1 ± 0.11; S -0.105 ± 0.069; P -0.057 ± 0.21; V -0.231 ± 0.079; W -0.419 ± 0.16; T 0.099 ± 0.11; A -0.013 ± 0.07; N -0.351 ± 0.26; E 0.002 ± 0.081; Q -0.133 ± 0.092; L 0 ± 0.056; I 0.085 ± 0.089
S12: C -0.305 ± 0.15; H -0.237 ± 0.17; K -0.054 ± 0.061; M -0.026 ± 0.086; W -0.181 ± 0.085; D -0.031 ± 0.075; T -0.149 ± 0.087; N 0.21 ± 0.1; I -0.091 ± 0.12; F -0.389 ± 0.23; Y -0.031 ± 0.11; A -0.046 ± 0.059; V -0.025 ± 0.052; P -0.077 ± 0.19; E 0.047 ± 0.054; L 0.055 ± 0.074; G -0.056 ± 0.041; Q 0.049 ± 0.095; R -0.06 ± 0.046
Q1: T 0.106 ± 0.11; G 0.048 ± 0.066; C -0.019 ± 0.14; W -0.032 ± 0.084; Y 0.172 ± 0.18; D 0.071 ± 0.14; R -0.228 ± 0.066; P -0.439 ± 0.23; N -0.053 ± 0.36; A -0.144 ± 0.16

Source: the Human Domainome abundance scans (Beltran et al. 2025)
